Test results from article PMC5470874.

Test system: Matrin 3 (endogenous, HCT116 nuclear extract) (Homo sapiens (HCT116))
Experiment: pull-down + mass spectrometry
Conditions: rMatrin 3 pulldown: 25 mM Tris-HCl pH 7.5, 150 mM KCl, 0.1% Triton X-100, 100 ug/ml BSA, 2 mM DTT, 5% glycerol, room temperature, 2 hr

Work on Bi-PINCR (full-length PINCR transcript) yielded a binding signal (fold over Bi-LUC) (DOXO-treated nuclear extract) of 16 and a binding signal (fold over Bi-LUC) (untreated nuclear extract) of 8.
